The text below walks through data of publication PMC2979009.

In this experiment the target is subtilisin pS169 (A1C mutant of S189), labeled with Alexafluor 350 maleimide (Bacillus amyloliquefaciens).

Consider “P1 (residues 1−77 of pG12), the prodomain product left after cleavage (domain or fragment)”, for which the Kd was < 1 nM.

One may read the Kd as the constant that tells how readily two partners part at equilibrium. A lower Kd goes with higher affinity.
